The results in this text go back to patent publication CN101696242A.

The target of this test is CVS-11. Nature of the test: cell-based or functional assay.

B1: 人源抗狂犬病毒中和抗体Fab (Fab, V domains shown)
VH: ELLESGGGLVQPGGSLRLSCAASGFTFSSYAMSWVRQAPGKGLEWVSSINRSGDITTYADSVKGRFTISRDNSKNTLYLQMNSLRAEDTAVYYCAKKTRRFDYWGQGTLVTVSS
VL: ESALTQPRSVSGSPGQSVTISCTGTSSDIGGYNFVSWYQQHPGKAPKLMIYDATKRPSGVPDRFSGSKSGNTASLTISGLQAEDEADYYCCSYAGDYTPGVVFGGGTKLTVLG
Turning to B1, the 中和效价 (狂犬病荧光抗体病毒中和试验 FAVN, BHK-21细胞) was 10.3 IU/mL.
